Test results: article PMC4537050, “A long pentraxin-3-derived pentapeptide for the therapy of FGF8b-driven steroid hormone-regulated cancers” (Oncotarget, 2015)

What was measured:
Experiment in all cases: SPR; BIAcore X-100; FGF8b (20 μg/ml in 10 mM sodium acetate, pH 6.0) or other FGFs (10 mM sodium acetate at optimal pH) immobilised on a CM5 sensor chip by EDC/NHS; peptide injected (ARPCA 8 μM to 2000 μM), 4 min at 30 μl/min, 10 min dissociation, in HBS; equilibrium values fitted with the Langmuir equation for monovalent binding
Conditions in all cases: both partners purified
FGF5 = biological target: T1, FGF5 (UniProt P12034 21-268)
T1 construct: fibroblast growth factor 5 (FGF5)
T1 sequence (looked up): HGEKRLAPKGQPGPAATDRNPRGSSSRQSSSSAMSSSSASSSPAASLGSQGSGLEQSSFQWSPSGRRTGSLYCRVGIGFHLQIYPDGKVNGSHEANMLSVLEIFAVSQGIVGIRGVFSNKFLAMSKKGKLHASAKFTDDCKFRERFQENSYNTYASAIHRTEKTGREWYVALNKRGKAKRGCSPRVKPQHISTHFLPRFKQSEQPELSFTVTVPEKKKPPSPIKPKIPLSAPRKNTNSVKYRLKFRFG

FGF7 = biological target: T2, FGF7 (UniProt P21781 32-194)
T2 construct: fibroblast growth factor 7 (FGF7)
T2 sequence (looked up): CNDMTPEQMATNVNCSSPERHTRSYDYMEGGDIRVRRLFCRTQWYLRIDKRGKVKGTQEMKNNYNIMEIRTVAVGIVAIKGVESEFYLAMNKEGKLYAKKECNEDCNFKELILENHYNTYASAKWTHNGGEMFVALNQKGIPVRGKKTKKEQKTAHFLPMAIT

FGF16 = biological target: T3, FGF16 (UniProt O43320 1-207)
T3 construct: fibroblast growth factor 16 (FGF16)

FGF20 = biological target: T4, FGF20 (UniProt Q9NP95 1-211)
T4 construct: fibroblast growth factor 20 (FGF20)

FGF18 = biological target: T5, FGF18 (UniProt O76093 28-207)
T5 construct: fibroblast growth factor 18 (FGF18)
T5 sequence (looked up): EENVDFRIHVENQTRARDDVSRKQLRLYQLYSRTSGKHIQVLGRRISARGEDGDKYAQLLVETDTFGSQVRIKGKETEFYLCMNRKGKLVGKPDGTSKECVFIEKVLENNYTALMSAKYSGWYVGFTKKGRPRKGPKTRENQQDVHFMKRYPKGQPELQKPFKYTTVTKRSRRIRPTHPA

FGF22 = biological target: T6, FGF22 (UniProt Q9HCT0 23-170)
T6 construct: fibroblast growth factor 22 (FGF22)
T6 sequence (looked up): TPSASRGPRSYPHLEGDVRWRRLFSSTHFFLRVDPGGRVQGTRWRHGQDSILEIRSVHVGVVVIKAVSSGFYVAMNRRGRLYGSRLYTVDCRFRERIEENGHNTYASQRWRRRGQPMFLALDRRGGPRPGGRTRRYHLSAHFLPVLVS

FGF17 = biological target: T7, FGF17 (UniProt O60258 23-216)
T7 construct: fibroblast growth factor 17 (FGF17)
T7 sequence (looked up): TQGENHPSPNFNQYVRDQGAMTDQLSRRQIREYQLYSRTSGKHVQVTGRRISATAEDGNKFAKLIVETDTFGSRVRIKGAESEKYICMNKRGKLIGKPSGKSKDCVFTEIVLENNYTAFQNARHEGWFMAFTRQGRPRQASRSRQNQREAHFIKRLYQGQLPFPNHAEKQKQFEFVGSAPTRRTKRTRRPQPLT

T4 sequence (Q9NP95 whole entry): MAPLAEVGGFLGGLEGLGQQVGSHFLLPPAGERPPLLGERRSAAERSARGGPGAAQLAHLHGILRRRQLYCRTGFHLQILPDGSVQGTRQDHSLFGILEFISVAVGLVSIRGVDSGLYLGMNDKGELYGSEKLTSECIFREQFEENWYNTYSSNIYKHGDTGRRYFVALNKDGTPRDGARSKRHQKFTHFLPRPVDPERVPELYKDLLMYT

Kd (FGF5): 299 µM
Kd (FGF7): 885 µM
Kd (FGF16): 112 µM
Kd (FGF20): 264 µM
Kd (FGF18): 26 µM
Kd (FGF22): 129 µM
Kd (FGF17): 476 µM
B1: Ac-ARPCA-NH2, acetylated pentapeptide corresponding to PTX3(100-104) (peptide)
peptide: Ac-ARPCA-NH2
notes: long pentraxin-3 (PTX3), residues 100-104 of the N-terminal extension; source: synthetic peptide, provided by R. Longhi and A. Gori (CNR, Milano, Italy)
